# Source: US20140038834
# Tests used:
# [1] = tested on: dephosphorylated HPLC-purified bovine NfH (treated with alkaline phosphatase)
# [2] = tested on: HPLC-purified bovine NfH (phosphorylated)
substance,measurement,setting,value
"enterokinase (EK, EC 3.4.21.9, Roche, Cat No 11 334115001)","limited proteolysis, cleavage products seen by immunoblot",[1],"The described in vivo cleavage products can be reproduced in vitro by incubation of purified NfH with enterokinase (FIG. 2D, lane 4 and FIG. 2E, lane 8)"
same,"limited proteolysis, cleavage products seen by immunoblot",[2],"The described in vivo cleavage products can be reproduced in vitro by incubation of purified NfH with enterokinase (FIG. 2D, lane 4 and FIG. 2E, lane 8)"
